Paper PMC6414520, “CryoEM structure of adenovirus type 3 fibre with desmoglein 2 shows an unusual mode of receptor engagement” (Nature Communications, 2019)

Legend:
[1] = target: human adenovirus type 3 fibre knob (HAd3K), fibre residues 124-319, co-expressed with DSG2 EC2-EC3 (human adenovirus type 3) (UniProt P04501); assay: cryo-EM structure; complex co-expressed in E. coli and co-purified (Ni-NTA, SEC); 150 mM NaCl, 3 mM CaCl2, 10 mM Tris-Cl pH 8.0; Volta phase plate; particles with one or two EC2-EC3 modules per knob trimer sorted by classification
[2] = target: the molecule itself; assay: as above

Chain of human desmoglein 2 EC2-EC3 domains (DSG2 residues 100-337), co-expressed with HAd3K in E. coli (domain or fragment) (Q14126 100-337): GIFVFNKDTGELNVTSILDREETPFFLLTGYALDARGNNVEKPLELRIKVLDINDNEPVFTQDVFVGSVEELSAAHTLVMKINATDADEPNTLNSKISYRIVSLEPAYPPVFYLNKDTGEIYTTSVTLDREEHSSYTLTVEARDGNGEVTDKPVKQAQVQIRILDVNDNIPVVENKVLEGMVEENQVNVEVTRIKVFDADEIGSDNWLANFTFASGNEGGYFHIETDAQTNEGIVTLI

| Molecule | stoichiometry N (DSG2 per knob trimer) [1] | stoichiometry N (receptor per knob trimer) [1] | stoichiometry N [2] |
| --- | --- | --- | --- |
| human desmoglein 2 EC2-EC3 domains (DSG2 residues 100-337), co-expressed with HAd3K in E. coli (domain or fragment) | 2 | 1 |  |
| human adenovirus type 3 fibre knob (HAd3K), fibre residues 124-319, co-expressed with DSG2 EC2-EC3 (domain or fragment, fibre protein of human adenovirus type 3, knob, fibre residues 124-319; Trimer; also called HAd3 fibre knob; HAdK3; source: E. coli Rosetta(DE3)pLysS, pETDuet, co-expressed with EC2-EC3, complex purified (Ni-NTA, SEC)) NSIALKNNTLWTGPKPEANCIIEYGKQNPDSKLTLILVKNGGIVNGYVTLMGASDYVNTLFKNKNVSINVELYFDATGHILPDSSSLKTDLELKYKQTADFSARGFMPSTTAYPFVLPNAGTHNENYIFGQCYYKASDGALFPLEVTVMLNKRLPDSRTSYVMTFLWSLNAGLAPETTQATLITSPFTFSYIREDD |  |  | 3 |
